Like-named read-outs stand apart in the source and are kept apart here. One block for each molecule: values may come before it. Bridge positions count the residues as written; N and C are the ends. Side chains are listed from the residue outwards. * marks the point of attachment. Biotin = O=C1N[C@H]2[C@H](CS[C@H]2CCCCC(=O)*)N1; AEEA = NCCOCCOCC(=O)O
Key:
Assay in all cases: cell-based or functional assay
[1] = biological target: hCCR2b (human) (UniProt P41597)
[2] = biological target: hCCR7 (human) (UniProt P32248)
[3] = biological target: hCCR9 (human) (UniProt P51686)
[4] = biological target: hCXCR3 (human) (UniProt P49682)
[5] = biological target: T1, hCCR4 (human, UniProt P51679 1-360)
T1 sequence (looked up): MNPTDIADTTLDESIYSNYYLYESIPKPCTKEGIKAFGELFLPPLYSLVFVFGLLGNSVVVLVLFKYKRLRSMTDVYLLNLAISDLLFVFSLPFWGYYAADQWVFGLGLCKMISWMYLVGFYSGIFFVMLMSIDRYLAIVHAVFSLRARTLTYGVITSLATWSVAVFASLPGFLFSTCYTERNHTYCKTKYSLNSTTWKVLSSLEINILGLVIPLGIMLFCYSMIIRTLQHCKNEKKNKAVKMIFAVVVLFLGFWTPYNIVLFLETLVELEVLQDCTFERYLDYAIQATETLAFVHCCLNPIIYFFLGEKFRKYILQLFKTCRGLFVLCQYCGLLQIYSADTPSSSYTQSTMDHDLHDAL

[6] = biological target: T2, CCR6 on lymphocytes in blood of healthy donors (human) (UniProt P51684)
T2 sequence (looked up): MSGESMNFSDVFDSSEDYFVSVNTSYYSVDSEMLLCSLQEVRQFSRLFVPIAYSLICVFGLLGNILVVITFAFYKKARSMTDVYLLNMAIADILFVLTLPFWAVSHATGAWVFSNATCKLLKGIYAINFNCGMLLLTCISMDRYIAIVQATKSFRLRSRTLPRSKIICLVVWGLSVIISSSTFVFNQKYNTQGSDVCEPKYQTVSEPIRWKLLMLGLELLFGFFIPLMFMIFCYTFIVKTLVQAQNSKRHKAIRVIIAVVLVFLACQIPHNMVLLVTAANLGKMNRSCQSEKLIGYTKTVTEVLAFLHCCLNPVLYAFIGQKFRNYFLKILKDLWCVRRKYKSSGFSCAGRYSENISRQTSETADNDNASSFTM

[7] = biological target: T3, hCCR6 (human) (UniProt P51684)
T3 sequence (looked up): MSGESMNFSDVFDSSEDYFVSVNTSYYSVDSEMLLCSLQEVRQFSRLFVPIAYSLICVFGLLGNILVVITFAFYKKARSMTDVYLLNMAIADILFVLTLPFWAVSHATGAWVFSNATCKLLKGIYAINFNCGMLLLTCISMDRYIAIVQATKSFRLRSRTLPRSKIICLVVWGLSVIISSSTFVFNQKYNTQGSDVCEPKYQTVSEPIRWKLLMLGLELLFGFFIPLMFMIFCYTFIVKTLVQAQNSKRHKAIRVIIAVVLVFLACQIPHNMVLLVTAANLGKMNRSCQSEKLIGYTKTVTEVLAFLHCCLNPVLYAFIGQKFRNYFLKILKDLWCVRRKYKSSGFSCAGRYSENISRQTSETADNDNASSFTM

[8] = biological target: hCXCR3 (human) (UniProt P49682); remark: listed apart in the source
[9] = biological target: T4, hCCR10 (human, UniProt P46092 1-362)
T4 sequence (looked up): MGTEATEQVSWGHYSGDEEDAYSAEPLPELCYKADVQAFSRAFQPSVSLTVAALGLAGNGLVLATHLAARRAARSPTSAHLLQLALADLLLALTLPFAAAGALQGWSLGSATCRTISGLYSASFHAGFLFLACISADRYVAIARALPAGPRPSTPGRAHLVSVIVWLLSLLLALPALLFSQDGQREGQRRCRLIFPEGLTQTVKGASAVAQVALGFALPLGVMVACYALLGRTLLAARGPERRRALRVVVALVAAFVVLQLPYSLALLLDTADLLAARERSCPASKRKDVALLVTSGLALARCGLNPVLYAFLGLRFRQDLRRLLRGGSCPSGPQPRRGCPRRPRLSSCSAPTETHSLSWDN

hCXCR3 (human), sequence (P49682 whole entry): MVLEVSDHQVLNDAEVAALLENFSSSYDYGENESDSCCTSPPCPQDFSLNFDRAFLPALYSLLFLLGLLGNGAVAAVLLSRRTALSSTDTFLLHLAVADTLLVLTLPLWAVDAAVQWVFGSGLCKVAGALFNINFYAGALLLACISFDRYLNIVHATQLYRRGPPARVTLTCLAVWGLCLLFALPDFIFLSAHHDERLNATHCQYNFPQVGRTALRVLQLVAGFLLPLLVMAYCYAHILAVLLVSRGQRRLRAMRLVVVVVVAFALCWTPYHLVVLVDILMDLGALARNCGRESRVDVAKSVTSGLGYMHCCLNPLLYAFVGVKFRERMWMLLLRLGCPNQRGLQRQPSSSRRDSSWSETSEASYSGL
hCCR9 (human), sequence (P51686 whole entry): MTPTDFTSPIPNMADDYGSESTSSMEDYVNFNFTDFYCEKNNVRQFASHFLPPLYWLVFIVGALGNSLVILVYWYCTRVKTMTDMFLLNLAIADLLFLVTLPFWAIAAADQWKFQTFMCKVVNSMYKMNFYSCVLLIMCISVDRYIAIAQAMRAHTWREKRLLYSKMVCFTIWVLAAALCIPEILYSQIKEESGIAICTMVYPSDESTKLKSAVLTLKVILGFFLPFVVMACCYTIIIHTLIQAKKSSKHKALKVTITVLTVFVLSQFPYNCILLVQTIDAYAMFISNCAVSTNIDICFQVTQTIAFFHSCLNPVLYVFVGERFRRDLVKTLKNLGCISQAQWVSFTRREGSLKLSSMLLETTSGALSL
hCCR2b (human), sequence (P41597 other isoform, or with tags, fused parts or gaps limits assumed): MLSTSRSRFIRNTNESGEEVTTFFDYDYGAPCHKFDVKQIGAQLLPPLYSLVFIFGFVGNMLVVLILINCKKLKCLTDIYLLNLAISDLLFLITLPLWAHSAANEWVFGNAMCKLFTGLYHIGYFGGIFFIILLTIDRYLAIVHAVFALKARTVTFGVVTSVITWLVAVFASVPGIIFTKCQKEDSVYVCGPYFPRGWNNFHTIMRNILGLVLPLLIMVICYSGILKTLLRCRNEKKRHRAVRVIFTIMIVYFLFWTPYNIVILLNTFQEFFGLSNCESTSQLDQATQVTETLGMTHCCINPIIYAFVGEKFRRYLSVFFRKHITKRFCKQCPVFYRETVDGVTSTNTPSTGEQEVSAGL
hCCR7 (human), sequence (P32248 25-378 limits assumed): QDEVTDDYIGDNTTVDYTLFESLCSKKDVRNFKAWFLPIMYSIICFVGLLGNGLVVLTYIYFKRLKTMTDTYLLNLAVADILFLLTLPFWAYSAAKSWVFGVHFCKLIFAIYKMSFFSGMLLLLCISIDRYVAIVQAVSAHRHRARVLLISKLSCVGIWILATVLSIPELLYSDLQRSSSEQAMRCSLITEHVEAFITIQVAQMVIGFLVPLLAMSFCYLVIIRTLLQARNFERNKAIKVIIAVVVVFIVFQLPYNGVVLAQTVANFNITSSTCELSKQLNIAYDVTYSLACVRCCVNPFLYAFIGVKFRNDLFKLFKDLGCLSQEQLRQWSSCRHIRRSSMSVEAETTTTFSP

EC50, Aequorin assay (partial agonist) [1]: 23.5 nM
Molecule: recombinant native MCP-2 (from UniProt P80075 24-99) (ligand)

EC50, Aequorin assay (agonist activity) [2]: 1.6 nM
Molecule: recombinant native MIP-3β (from UniProt Q99731 22-98) (ligand)

EC50, Aequorin assay (agonist activity) [3]: 67.9 nM
Molecule: recombinant native TECK (from UniProt O15444 24-150) (ligand)

EC50, Aequorin assay (agonist activity) [4]: 4.4 nM
Molecule: recombinant native IP-10 (from UniProt P02778 22-98) (ligand)

EC50, Aequorin assay (agonist activity) [3]: 63.6 nM
Molecule: biotinTECK(Met to Nleu substitution) (CCL25), derivatised at the ε-amino side chain functionality of Lys72 with PEG-Biotin (from UniProt O15444 25-97) (ligand)

EC50, Aequorin assay (agonist activity) [5]: 2.6 nM
Molecule: recombinant native TARC (from UniProt Q92583 24-94) (ligand)

reduction of CCR6-expressing cells after column passage (flow cytometry) [6]: < 15%
Molecule: biotinylated MIP-3alpha coupled matrix (from UniProt P78556 27-96) (ligand)

EC50, Aequorin assay (agonist activity) [7]: 1 nM
Molecule: recombinant native MIP-3α (from UniProt P78556 27-96) (ligand)

EC50, Aequorin assay (agonist activity) [8]: 0.7 nM
B1: recombinant native ITAC (ligand, UniProt O14625 22-94, looked up)
chain: FPMFKRGRCLCIGPGVKAVKVADIEKASIMYPSNNCDKIEVIITLKENKGQRCLNPKSKQARLIIKKVERKNF

EC50, Aequorin assay (agonist activity) [9]: 49.4 nM
B2: biotinCTAC (CCL27), CTAC derivatised at the ε-amino side chain functionality of Lys(87) with PEG-Biotin (ligand)
chain: FLLPPSTACCTQLYRKPLSDKLLRKVIQVELQEADGDCHLQAFVLHLAQRSICIHPQNPSLSQWFEHQERKLHGTLPKLNFGMLRKK([AEEA-Biotin])G-OH
modifications: disulfide 10-53, 9-38; ends not checked; also: TFA salt

EC50, Aequorin assay (agonist activity) [5]: 3.6 nM
B3: recombinant native MDC (ligand, UniProt O00626 25-93, looked up)
chain: GPYGANMEDSVCCRDYVRYRLPLRVVKHFYWTSDSCPRPGVVLLTFRDKEICADPRVPWVKMILNKLSQ

EC50, Aequorin assay (agonist activity) [5]: 3.1 nM
B4: biotinTARC (CCL17), TARC derivatised at the ε-amino side chain functionality of Lys(72) with PEG-Biotin (ligand)
chain: ARGTNVGRECCLEYFKGAIPLRKLKTWYQTSEDCSRDAIVFVTVQGRAICSDPNNKRVKNAVKYLQSLERSK([AEEA-Biotin])-NH2
modifications: disulfide 10-34, 11-50; ends not checked; also: TFA salt

EC50, Aequorin assay (agonist activity) [9]: 33.5 nM
B5: recombinant native CTAC (ligand, UniProt Q9Y4X3 25-112, looked up)
chain: FLLPPSTACCTQLYRKPLSDKLLRKVIQVELQEADGDCHLQAFVLHLAQRSICIHPQNPSLSQWFEHQERKLHGTLPKLNFGMLRKMG

— patent publication US20180038860A1 (published 2018)
